The target of assay [1] is N-terminal NanoLuc-tagged VEGFR2 (wild type) (UniProt P35968). Put plainly: FRET or BRET; NanoBRET saturation binding, membranes from NanoLuc-VEGFR2 HEK293T cells (5 μg per well); increasing fluorescent ligand with or without 100 nM corresponding unlabelled ligand; 60 min, 37°C; HeBSS/0.1% BSA pH 7.4. (In BRET a luciferase serves as donor, and the signal depends on an acceptor being close.)

For assay [2] the target is unchanged. Put plainly: FRET or BRET; NanoBRET kinetics, membranes from NanoLuc-VEGFR2 HEK293T cells (10 μg per well); five concentrations of fluorescent ligand (1–20 nM); every 30 s for 90 min at 37°C; KD kinetic (koff/kon).
The target of assay [3] is tyrosine phosphorylation-deficient NanoLuc-VEGFR2 (UniProt P35968). As to the kind of experiment: FRET or BRET; NanoBRET kinetics, membranes from a stable cell line expressing tyrosine phosphorylation-deficient NanoLuc-VEGFR2; four concentrations of VEGF121a-TMR (3–20 nM), 90 min at 37°C; KD kinetic (koff/kon).
The target is the same in assay [4]. Put plainly: FRET or BRET; NanoBRET time course, intact HEK293T cells transiently transfected with wild-type or tyrosine phosphorylation-deficient NanoLuc-VEGFR2; 3 or 20 nM VEGF121a-TMR; every 30 s at 37°C.
Assay [5] concerns the target N-terminal NanoLuc-tagged VEGFR2 (wild type) (UniProt P35968). The assay is described as above.
Assay [6] deals with NanoLuc-VEGFR2 (Homo sapiens) (UniProt P35968). As to the kind of experiment: NanoBRET kinetics, intact cells. As to conditions: cited from earlier work.
For assay [7], the target named is N-terminal NanoLuc-tagged VEGFR2 (wild type) (UniProt P35968). Put plainly: FRET or BRET; NanoBRET kinetics, membranes from NanoLuc-VEGFR2 HEK293T cells (10 μg per well); five concentrations of fluorescent ligand (1–20 nM); every 30 s for 90 min at 37°C; KD kinetic (koff/kon). The source holds these as a separate data set.
Assay [8] shares this target. As to the kind of experiment: FRET or BRET; NanoBRET kinetics, wild-type NanoLuc-VEGFR2 membranes (10 μg per well), HeBSS/0.1% BSA pH 6.0 (5.8–6.2); four concentrations of VEGF165b-TMR (3–20 nM), 37°C; KD kinetic (koff/kon).
For assay [9] the target is unchanged. Put plainly: FRET or BRET; NanoBRET kinetics, wild-type NanoLuc-VEGFR2 membranes (10 μg per well), HeBSS/0.1% BSA pH 7.4 (matched with pH 6.0); four concentrations of VEGF165b-TMR (3–20 nM), 37°C; KD kinetic (koff/kon).
The target is the same in assay [10]. As to the kind of experiment: FRET or BRET; NanoBRET kinetics, intact HEK293T cells stably expressing NanoLuc-VEGFR2, pretreated with 0.01% DMSO (30 min, 37°C); four concentrations of VEGF165b-TMR (3–20 nM), every 30 s for 90 min at 37°C; constants from a global association fit to the initial 20 min; KD kinetic (koff/kon).
For assay [11] the target is unchanged. Put plainly: FRET or BRET; NanoBRET kinetics, NanoLuc-VEGFR2 membranes preincubated with 1 μM cediranib (30 min, 37°C); four concentrations of VEGF165b-TMR (3–20 nM), 90 min at 37°C; KD kinetic (koff/kon).
The target is the same in assay [12]. Put plainly: FRET or BRET; NanoBRET saturation binding, wild-type NanoLuc-VEGFR2 membranes (5 μg per well), HeBSS/0.1% BSA pH 6.0 (5.8–6.2); with or without 100 nM VEGF165b; 60 min, 37°C.
For assay [13] the target is unchanged. Put plainly: FRET or BRET; NanoBRET kinetics, intact HEK293T cells stably expressing NanoLuc-VEGFR2, pretreated with 1 μM cediranib (30 min, 37°C); four concentrations of VEGF165b-TMR (3–20 nM), every 30 s for 90 min at 37°C; constants from a global association fit to the initial 20 min; KD kinetic (koff/kon).
For assay [14] the target is unchanged. Put plainly: FRET or BRET; NanoBRET kinetics, NanoLuc-VEGFR2 membranes preincubated with 0.01% DMSO (30 min, 37°C); four concentrations of VEGF165b-TMR (3–20 nM), 90 min at 37°C; KD kinetic (koff/kon).
For assay [15] the target is unchanged. As to the kind of experiment: FRET or BRET; NanoBRET saturation binding, wild-type NanoLuc-VEGFR2 membranes (5 μg per well), HeBSS/0.1% BSA pH 7.4 (matched with pH 6.0); with or without 100 nM VEGF165b; 60 min, 37°C.
The target is the same in assay [16]. As to the kind of experiment: FRET or BRET; NanoBRET displacement, membranes from NanoLuc-VEGFR2 HEK293T cells (5 μg per well); five fixed concentrations of fluorescent ligand with increasing VEGF-Ax (0.03–30 nM); 60 min, 37°C; Ki by Cheng–Prusoff.

Sequence of VEGF-Ax (P15692 whole entry): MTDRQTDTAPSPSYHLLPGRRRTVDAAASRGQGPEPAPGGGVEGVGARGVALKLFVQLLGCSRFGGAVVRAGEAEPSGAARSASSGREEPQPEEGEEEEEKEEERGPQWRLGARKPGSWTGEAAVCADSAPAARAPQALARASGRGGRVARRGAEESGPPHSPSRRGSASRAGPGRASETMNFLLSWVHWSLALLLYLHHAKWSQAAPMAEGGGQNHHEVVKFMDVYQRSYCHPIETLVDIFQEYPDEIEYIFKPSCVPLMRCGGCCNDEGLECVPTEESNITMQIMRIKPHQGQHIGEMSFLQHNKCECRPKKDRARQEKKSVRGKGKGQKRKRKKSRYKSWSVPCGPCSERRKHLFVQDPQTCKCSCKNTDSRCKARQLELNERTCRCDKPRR
Sequence of VEGF165a-TMR (P15692 whole entry): as above

“VEGF121a-TMR (from UniProt P15692-9 1-147) (ligand)” showed a Kd in assay [1] of 2.58 nM. Besides, in assay [2], the equilibrium dissociation constant (Kd) amounted to 3.85 nM, the koff was 0.000317 s⁻¹, the on-rate constant (kon) was 85500 M⁻¹ s⁻¹ and the residence time was 52.6 min. In [3], this substance showed a Kd of 6.85 nM, a koff of 0.000617 s⁻¹, a kon of 104000 M⁻¹ s⁻¹ and a residence time of 27 min. In [4], this substance showed an AUC of the NanoBRET time course at 3 nM of 3.54 and an AUC of the NanoBRET time course at 20 nM of 9.79. Also, in assay [5], the AUC of the NanoBRET time course at 3 nM was found to be 2.61 and the AUC of the NanoBRET time course at 20 nM was 7.28.
Turning to VEGF165a-TMR (from UniProt P15692), the Kd in [6] was 6.64 nM.
“VEGF165a-TMR (from UniProt P15692-4 1-191) (ligand)”: the Kd in [1] was determined as 0.31 nM; in [2] it was 2.21 nM; in assay [7], 2.4 nM.
Turning to “VEGF165b-TMR (from UniProt P15692-8 1-191) (ligand)”, the Kd in [8] worked out at 13.3 nM; in [9] it was 10.2 nM; in assay [10] it was 19.8 nM; in assay [11], 8 nM; in assay [1], 5.55 nM; in assay [2], 9.21 nM. For the same substance, the Kd in assay [12] stood at 4.43 nM; in [13], 43.6 nM; in assay [14], 9.68 nM; in assay [15], 5.29 nM. Further, the off-rate (koff) turned out to be 0.000983 s⁻¹ in [8]; 0.000383 s⁻¹ in [9]; 0.00135 s⁻¹ in assay [10]; 0.00035 s⁻¹ in [11]; 0.000483 s⁻¹ in assay [2]; 0.00152 s⁻¹ in assay [13]. The koff in assay [14] was found to be 0.000383 s⁻¹. Further, the kon in [8] was 73200 M⁻¹ s⁻¹; in [9] it was 39000 M⁻¹ s⁻¹; in assay [10], 71000 M⁻¹ s⁻¹; in assay [11], 45700 M⁻¹ s⁻¹; in assay [2], 61500 M⁻¹ s⁻¹; in assay [13], 43800 M⁻¹ s⁻¹. In [14], this substance gave a kon of 44800 M⁻¹ s⁻¹. Besides, the residence time in assay [8] turned out to be 17 min; in assay [9], 43.5 min; in [10], 12.3 min; in assay [11] it was 47.6 min; in assay [2], 34.5 min; in [13], 11 min. The substance further came in with a residence time in assay [14] of 43.5 min. The AUC of the NanoBRET time course at 5 nM was 0.71 in [10] and 0.77 in [13]. Besides, the values for the AUC of the NanoBRET time course at 20 nM in assay [10] and in assay [13] were 1.8 and 2.04, respectively.
In assay [16], VEGF-Ax (ligand) returned a pKi (fluorescent probe VEGF121a-TMR) of 10.3, a pKi (fluorescent probe VEGF165a-TMR) of 10.2 and a pKi (fluorescent probe VEGF165b-TMR) of 9.96.

By Kd is commonly meant the free concentration of one partner at which half of the binding sites on the other are occupied at equilibrium, for simple one-to-one binding. As usually defined, the koff is the first-order rate constant of dissociation. In general, kon refers to the second-order rate constant of association. A word on the residence time: it is how long the partners stay bound on average.
